The source of these data is a protein production outcome set (Wang et al. 2014).

The data set can be described thus: label from the status in PepcDB records.
Turning to “MYELTEDFKLRKITKYELDGVDEREDLLVIPPSSKAGPCGNGCLFCYLLQNPPEMIYRVARHDTLNDPTLEERIRYARKHYDLWIRVTDTSGNVKFDENRIKSLYEAGLDEIQISVHTTKKDVRIKLMRNRHAGKLIDLLPLVAKHFRTIADIILTPGFNVDDIGEIIEDLDSMGVHEVRLFPVGVTKYNRFEIRPLTKEE”, the protein production entry was “failed”.
“MITVVKRNGRIEPLDITKIQKYTKDATDNLEGVSQSELEVDARLQFRDKITTEEIQQTLIKTAVDKIDIDTPNWSFVASRLFLYDLYHKVSGFTGYRHLKEYFENAEEKGRILKGFKEKFDLEFLNSQIKPERDFQFNYLGIKTLYDRYLLKDANNNPIELPQHMFMSIAMFLAQNEQEPNKIALEFYEVLSKFEAMCATPTLANARTTKHQLSSCYIGSTPDNIEGIFDSYKEMALLSKYGGGIGWDFSLVRSIGSYIDGHKNASAGTIPFLKIANDVAIAVDQLGTRKGAIAVYLEIWHIDVMEFIDLRKNSGDERRRAHDLFPALWVCDLFLKRVLEDAMWTLFDPYECKDLTELYGQDFEKRYLEYEKDPKIIKEYINAKDLWKKILMNYFEAGLPFLAFKDNANRCNPNAHAGIIRSSNLCTEIFQNTAPNHYYMQIEYTDGTIEFFEEKELVTTDSNITKCANKLTSTDILKGKPIYIATKVAKDGQTAVCNLASINLSKINTEEDIKRVVPIMVRLLDNVIDLNFYPNRKVKATNLQNRAIGLGVMGEAQMLAEHQIAWGSKEHLEKIDALMEQISYHAIDTSANLAKEKGVYKDFENSEWSKGIFPIDKANNEALKLTEKGLFNHACDWQGLREKVKANGMRNGYLMAIAPTSSISILVGTTQTIEPIYKKKWFEENLSGLIPVVVPNLNVETWNFYTSAYDIDAKDLIKAAAVRQKWIDQGQSLNVFLRIENASGKTLHDIYTLAWKLGLKSTYYLRSESPSIDEKSVLDRSVECFNCQ”: the protein production result was “failed”.
Turning to “MKRLIVSSSVVLFMFLCSITITSAENNSVKVAFIRHHNLWIKVDGKEIQITKGEYITGPKWSYDGEWLAYVKGKKQSILELYRLKDGKKVTPFHSEASNYQWSPTENIIAFIFTGTLNTFDVEKKNADFENVSAGVGDYAWYPDGKNFLVSSEAHLLPTGWTGAQLYEVQKDAHMNPHKMKHLYALPNEHDDFLALVASGFKWSPDQKWISFLAVPTASWSADSNTLCLVRADGSRFEKVDQMLLNAQWFQWAPSKNILAYIEGSGRVALENKHLKVKELPALQQNIFTPKGYVDWDFVWKNDRVIIVSRAKEAGIETPPEKRPLPSLYEVDSTSNAQHQITKKTNKQGDYHPIFMKKSNQLIWIRSDRKKADVWLAHKDRKQEKKWIENIDVPAWYYEKWNWGNVISVKEE”, the protein production entry is on record as “failed”.
For “MKNIINILDDLTINKIAAGEVVERPSSVVKELIENSIDAGANKISIDIIDGGKSLIKITDNGIGIPSSEVEKSFLRHATSKIKKIDDLYDLYSLGFRGEALASISAVSKLEMTTKTKDEIIGTKIYVEGGKIISKEPIGFTNGTTIIIKDIFFNTPARQKFLKSTHAETINISDLINKLAIGNPNIQFKYTNNNKQMLNTPGDGKLVNTIRSIYGKEITENIIDVEFKCNHFKMNGYIGNNNIYRSNKNLQHIYINKRFVKSKIIIDAITESYKSIIPIGKHAVCFLNIEVDPSCIDVNIHPNKLEIKFEKEQEVYIELRDFLKVKLIHSNLIGKYATYSDKKTQPRIAINSREKSTDYKLRNNDLLESTPKNSNITKGKDEVIEVVTLSSEKPINEFQSVSEVLNASVEDDVKNINYLSEDSANDNIQEEFQVDGIKNEGNYYLGDSIKDSEEEYLCSSKRKFSLYGYSVIGVVFNTYIILSKDDSMYLLDQHAAHERILYERYMEKFYRQDINMQILLDPVVIEVSNVDMLQIENNLELFMKFGFELEIFGNNHIMVRCVPTIFGVPETEKFILQIIDNIEEITSNYDLKGERFASMACRSAIKANDKIYDIEIKSLLEQLEKCENPFTCPHGRPIMVEISKTEIEKMFKRIM”, the protein production result is reported as “failed”.
With “MNFYWFDAFILGFTLLLGLKGIINGLIKEIFGLLGIIGGVFIASKYATQAAEFIQSTFYKIENQSLAGFAGFLAILIIFWIVCLLVGNFLSRLIKLSGLGFLDRIGGFIFGGAKIFLIFAILVFCVARIDFLNDKLDNFAKNSYTLNLLKETGSFIMNQPLTENSLDHASEKLQDIVSDLNNTQKGE”, the protein production result was “failed”.
In the case of “MVTKILKAPDGSPSDVERIKKESDYLRGTLKEVMLDRISAGIPDDDNRLMKHHGSYLQDDRDLRNERQKQKLEPAYQFMLRVRMPGGVSTPEQWLVMDDLSQKYGNGTLKLTTRETFQMHGILKWNMKKTIQTIHSALLDTIAACGDVNRNVMCASNPYQSEIHSEVYEWSKKLSDDLLPRTRAYHEIWLDEERVAGTPEEEVEPMYGPLYLPRKFKIGIAVPPSNDIDVFSQDLGFIAIVEDGKLIGFNVAIGGGMGMTHGDTATYPQLAKVIGFCRPEQMYDVAEKTITIQRDYGNRSVRKNARFKYTVDRLGLENVKEELENRLGWSLEEAKPYHFDHNGDRYGWVEGIEDKWHFTLFVEGGRITDYDDYKLMTGLREIAKVHTGEFRLTANQNLMIANVSSDKKEEISALIEQYGLTDGKHYSALRRSSMACVALPTCGLAMAEAERYLPTLLDKIEEIIDENGLRDQEITIRMTGCPNGCARHALGEIGFIGKAPGKYNMYLGAAFDGSRLSKMYRENIGEADILSELRILLSRYAKEREEGEHFGDFVIRAGIIKATTDGTNFHD” it was “failed”; in that of “AGGTTPAELRAAAADFTWLLNRFATETAGVVDAIAVSSDGLLIAVSELREHADSERLAAIVSGITSLAAGASGNYGLGGLNKVIIDLEGGHVLVSAIGSGAVLGVVTDKEAKLGNIAYEMTLFANRAGAALS”, “failed”; in that of “MQHPRQGPPSRHTRRSLGRSLALTMTAVLGAAGLALSPAASADSGPTTADPTEAHGLKGEYYTQSAPGAFDFAELKATGFDPGLDFDSLESRLSAATGRADDVSVRWTGEVVPEKSGPTTFSITGDNGFRLWVDGKLTIDHWVDDWDREQTSQPVDLTAGRAYDIKVEYFEHFGGSNLHLRWTPPGGSKSAVPQSAFRLPDGFDYNGALSATVLGDGRTVRLDFPQALASAPATVLDHLTVTSGGKWPLSSVKTDPSDARALLVGLGEPVVGNKAGTAKGGVNVTYDGKGALADTSGTPVKAFWSSGPNKSTYELRTKWADQVGPKNALPEYPRPQLTRKAWQNLNGTWQFAGAKAGEEPPTGRTLAERILVPYPVESQLSGIERHEDRMWYRRTFTVPADWKVGHGKRLRLNFGAVDWQSEVYVNGTKVAEHKGGYDKFSADVTDALKPGRTQELIVGVYDPTDAQGGENPPLGKQRLDPSGIWYTPSSGIWQTVWMEPVAADHVDTLKLTPDVETSTLTVEPKGVRDGLAVTATAYDGKKKVATVRGRTGTPLTLKLAEPRLWSPDDPFLYDLKVDVGADRVGSYFGMRSIAVEKVDGTPRTVLNGKPVFMMATLDQGFWPDGLHTAPTDDALAHDLKMHKQMGFNSVRKHIKVEPDRWFYWADRLGLLVWQDMPAMTAGVNPNAASRAEYEREMKQLIDEHISSPSVVMWVTFNEGWGQYDEARIADQAKAWDPTRLVNSMSGLNLGVDGGTGDVMDEHGYPSPALPPHPDGRRALVSGEYGGLGLGVPGHAWSVQMSYVDVDPAAYTDTYLARLDEVRRLACRGGNGAVYTQISDVEGELNGLMTYDRKIVKPDVQRLRTAHEALIEAVAQSTLPCATS”, “failed”.
For “MDEYAGRVLADRYRLPLPPSDEYELAETRAFDTYSGQEVLVRQVPLPEVVEAEVLDADGLPAGFVARDGGTRRASARTATRRPAEPAVRRAIEAAQAAAQIPDHPRLDQVFDVFAEGGSLWIVSELVAARPLAALLADKPLSPYRAAEVASDVLMALRVLHAHGWVHRNITVRTVLVCDDGRVMLTGLAAGAAEEALCGYDPVPVRDFEPRGDDGGDGTGGNGRGAVRGAAAGGTPGIGSGPGAGSGRPGIGAGSGGPVGAAGGAVGAAAGGMSVAEAEAARRAAIEARAGGVGPVAGTPGGEVPARGARALEGGGDARAQRAGAIAAYRAGARAAARVQEAQRGGRAALPAPRPADAEGRAPQSPGHGVEHLPGALPGQIADPYGVARTNSWPGGFPGDVGGANVGGAYGTPGNGSGTYENGSVPHAPADAPVSTPTPADAVPPTHWDHLVSGSSAPSGPSAASVPRRGPTTALAAERARQARMAVIGPVTERWAPEQAGPVHENWQLAAPIGPATDLWALGALLFRAVQGHAPYPEENTAELVQLVCAEPPAFAEECGPLRPVVESLLRQDPTERLDFEEVRGWLRSLVRSAPEPEAGAHVVAAPPVDPRRLPIVRRRGELVRRRRARLPATTPHARHKRAKDGRPPRPKRLGRNLVLLILLVLAAAVAYAMVFMPKASPNSDSGSRSDGDRTGAAGGVSPAPEQSGGGSEPRPDQTSPGSGKSPSGSSGSTREQTTDPDVAQGFTLRKDPEGFRVAVATGWDRAPKNGRGRIVYSHGDFELIVVPGRDSTADHGSDPLTYQRETESELQPFRDSTWATSSGMRRIDVGGRTMAEGQFTWTDGQGRELFVRNLAIVVGGRYHVVQLRGPEAERDEVTRLYEQASRTYQVTG”, the protein production result is “failed”.
In the case of “GFVCDDFPKPQITVQPETQSAIKGSDVSFTCSAASSSDSPMTFAWKKDNEALQDAEMENYAHLRAQGGELMEYTTILRLRNVEFTSEGKYQCVISNHFGSSYSVKAKLTIN”, the protein production result is “not failed”.
In the case of “MRVPLDEIDKKIIKILQNDGKAPLREISKITGLAESTIHERIRKLRESGVIKKFTAIIDPEALGYSMLAFILVKVKAGKYSEVASNLAKYPEIVEVYETTGDYDMVVKIRTKNSEELNNFLDLIGSIPGVEGTHTMIVLKTHKETTELPIK”, the protein production entry is on record as “not failed”.
Turning to “MGKGGDIVVGNGKKYAAPLLVLGCVVFGLGSLIVRSVPVGSYAIAFWRLLISVFVFWFLARFFRQKFPKNRKTVRYALTAGVFLAFDLALWHESIHAVGPGISTLLNSLQIFFLSAIGVFFFGERLSGLKKAGLISAVAGVAMIAGAEFGYNGNAVWGFASGLVSGLMLALSMVFVRKTHEIEPVALFPSMMILSLGGAVSLVVPALLMDGGALYPTTWKDAGLVLVYGVVMQCFAWAMVAYAIPLLSLSLTGLLLLSEPVAALFIDYFGLGKPIEGVQWAGVALTLSAIYLGSLKRQSSH”, the protein production entry is “failed”.
On to “MMSQSERPDVAEIRVPFRDVDMNGQMFLASYISYAESVLASFWSSRPDVDDEPVYSPSKVSCFLHRPLHYDEPATFTATIDKIGVRSIGFLISIDTGEERAAEVEIIWQAHAPEDQSPASLPEETRDWLYRFLN”, for which the protein production entry is listed as “failed”.
In the case of “MGTEVSTSPTSLIDQTVVPGDVVLDLSNMTNQTIKLGSGLRQDNEVISVMRAGKLRYSKPNKYWVESSHKRYVPRPEDHVLGIVVDCKGENYWIDIKGPQLALLPVLAFEGANRRNYPKFEVSTLLYTRVVKTNTGMNPELSCVDESGKAAGFGPLKDGFMFETSTGLSRMLLSSPTCPVLEALGKKLSFETAFGLNGRCWVHAAAPRIVIIVANALMNSETLSGTQQRIMVEKLLEKISD” it was “failed”; in that of “MDWITLLRSLQSDFIKRLSSGCLLHCEIEGQYSELTVISGERLKTLRDFCWLMAEKYKRVSPVRDVFISYLKGKLGEEVVKERLADLITEVDYEKRLGGDGKIDFTLTANPAIGIEVKSRHGNIDRVRWSVSAEEVEKNAVVVCIFIKEDVNEAQSSYHLLLAGFLPTQMIKLKTGNISFGIEQLLYGGGLWGYLEQLQASANYHQFQQSPPIYQYKPQPELLSKINQTQSIKPALFTGIKNILPYRQQEAINIDYIKIGDECFAQGEYTASIKNYSQALQASSDNCELYYKRGLSYYQLGDYEAAIADYSQAININLHDAKSYHKRGLALSQLAAYEAAIDDYNQAIRINPHAASIYKNRAEARSHLGDNQGAIEDYTQAIKINPQYADTYKNRGISRYLLATQPGFTQAIKINPNDANAYKNRGNARADIGDYLGAIEDYNQAIQINPKAADAYYNRGNARYDLGDEEGAIADYTQAIQINPSYADAYYNRGNVRAGIKDKQGAIADFQKAADIYRKEGKLAELKDTTERVVELEIEESIDILNF”, “failed”.
